Data as given in patent US20170029507A1 (IMAGINAB, published 2017).
Values belong to the binder of their own block, whether it stands above or below them.

What was measured:
[1] = target: T1, purified recombinant human CD8 protein (human, UniProt P01732 22-182, limits assumed); experiment: ELISA, plate coated with rhCD8, transfection supernatant at 0.5 µg/ml and serially diluted, HRP goat anti-human IgG (Fc-specific), TMB, 405 nm
T1 construct: also called rhCD8; hCD8
Description: (§1) The concentration of the variants UAb_Mb1b_CD8, and IAb_Mb1a_CD8 were normalized to […] the concentration of IAb_MB2a_CD8 (0.5 μg/ml) based on the quantitative ELISA.
(§2) 96 well plates were coated with rhCD8 antigen and incubated with supernatants obtained from the transient transfection. Binding was detected with HRP-conjugated goat anti-human (Fc-specific) IgG and TMB substrate. The absorbance measured at 405 nm. Dilutions were done in triplicate. Data is shown as mean of relative absorbance.

[2] = target: T1, purified recombinant human CD8 protein; experiment: ELISA, plate coated with rhCD8, transfection supernatant serially diluted from 0.5 µg/ml, HRP goat anti-human IgG (Fc-specific), TMB, 405 nm
Description: as §1, §2

T1 sequence (P01732 22-182 limits assumed): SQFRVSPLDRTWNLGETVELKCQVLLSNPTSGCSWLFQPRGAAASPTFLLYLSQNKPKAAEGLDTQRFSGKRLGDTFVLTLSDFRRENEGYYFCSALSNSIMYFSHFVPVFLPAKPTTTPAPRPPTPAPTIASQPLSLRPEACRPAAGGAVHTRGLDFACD

- EC50 (read off the curve) [1]: ~0.02 µg/mL
B1: IAb_Mb2a_CD8 (other)
chain: EVQLVESGGGLVQPGGSLRLSCAASGFNIKDTYIHFVRQAPGKGLEWIGRIDPANDNTLYASKFQGKATISADTSKNTAYLQMNSLRAGDTAVYYCGRGYGYYVFDHWGQGTLVTVSSGSTSGGGSGGGSGGGGSSDVQITQSPSSLSASVGDRVTITCRTSRSISQYLAWYQQKPGKVPKLLIYSGSTLQSGVPSRFSGSGSGTDFTLTISSLQPEDVATYYCQQHNENPLTFGGGTKVEIKEPKSCDKTHTCPPCGGGSSGGGSGGQPREPQVYTLPPSRDELTKNQVSLTCLVKGFYPSDIAVEWESNGQPENNYKTTPPVLDSDGSFFLYSKLTVDKSRWQQGNVFSCSVMHEALHNHYTQKSLSLSPGK
notes: Tested as CHO-K1 transfection supernatant; also called variant 2a

- EC50 (read off the curve) [2]: ~0.04 µg/mL
B2: IAb_Mb2c_CD8 (other)
chain: QVQLVQSGAEVKKPGATVKISCKVSGFNIKDTYIHFVQQAPGKGLEWIGRIDPANDNTLYASKFQGKATITADTSTDTAYMELSSLRSGDTAVYYCGRGYGYYVFDHWGQGTLVTVSSGSTSGGGSGGGSGGGGSSDVQITQSPSSLSASVGDRVTITCRTSRSISQYLAWYQQKPGKVPKLLIYSGSTLQSGVPSRFSGSGSGTDFTLTISSLQPEDVATYYCQQHNENPLTFGGGTKVEIKEPKSCDKTHTCPPCGGGSSGGGSGGQPREPQVYTLPPSRDELTKNQVSLTCLVKGFYPSDIAVEWESNGQPENNYKTTPPVLDSDGSFFLYSKLTVDKSRWQQGNVFSCSVMHEALHNHYTQKSLSLSPGK
notes: Tested as CHO-K1 transfection supernatant; also called variant 2c
